Columns and labels:
[1] = target: T1, human serum albumin (human, UniProt P02768 25-609); test: method not stated there (BIACORE SPR in Example 1); reference value given inside prophetic Example 10
T1 construct: also called HSA; HAS

[2] = target: porcine serum albumin (porcine, UniProt P08835 25-607); test: method not stated in the legend (BIACORE SPR for the other affinities)
[3] = target: T2, mouse serum albumin (mouse, UniProt P07724 25-608); test: table of affinities (KD); BIACORE on serum albumin-coated chip according to Example 1;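 further: surface plasmon resonance with dAbs flowed over a chip carrying human, rat or mouse serum albumin, blocked uncoated flow cell as reference, KD from on- and off-rate curve fits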
T2 construct: also called MSA
Procedure: (§1) dAbs that bound serum albumin on a BIACORE chip (Biacore AB) were then further analysed to obtain information on affinity. The analysis was performed using a CM5 chip (carboxymethylated dextran matrix) that was coated with serum albumin. Flow cell 1 was an uncoated, blocked negative control, flow cell 2 was coated with HSA, flow cell 3 was coated with RSA and flow cell 4 was coated with MSA. The serum albumins were immobilised in acetate buffer pH 5.5 using the BIACORE coating wizard which was programmed to aim for 500 resonance units (RUs) of coated material. Each dAb of interest was expressed in the periplasm of E. coli on a 200 mL-500 mL scale and purified from the supernatant using batch absorption to protein A-streamline affinity resin (Amersham, UK) for the VH_{^S} and to protein L-agarose affinity resin (Affitech, Norway) for the Vκs followed by elution with glycine at pH 2.2 and buffer exchange to PBS. A range of concentrations of dAb were prepared (in the range 5 nM to 5 μM) by dilution into BIACORE HBS-EP buffer and flowed across the BIACORE chip.

[4] = target: T3, rat serum albumin (rat, UniProt P02770 25-608); test: as above
T3 construct: also called RSA
Procedure: as §1

[5] = target: T3, rat serum albumin; test: BIACORE SPR, albumin on a CM5 chip, dAb in solution
Procedure: as §1

[6] = target: T1, human serum albumin; test: as above
Procedure: as §1

[7] = target: T1, human serum albumin; test: BIACORE, HSA flow cell (Fc=2), fit of the single trace at 62.5n analyte, row 'Fc=2 - 48' [contd.]
Procedure: as §1

[8] = target: T1, human serum albumin; test: BIACORE, HSA flow cell (Fc=2), fit of the single trace at 125n analyte, row 'Fc=2 - 47' [contd.]
Procedure: as §1

[9] = target: T1, human serum albumin; test: BIACORE, HSA flow cell (Fc=2), fit of the single trace at 125n analyte, row 'Fc=2 - 47'; KD cell shaded [contd.]
Procedure: as §1

[10] = target: T1, human serum albumin; test: BIACORE, HSA flow cell (Fc=2), fit of the single trace at 1000n analyte, row 'Fc=2 - 44' [contd.]
Procedure: as §1

[11] = target: T1, human serum albumin; test: BIACORE, HSA flow cell (Fc=2), fit of the single trace at 5000n analyte, row 'Fc=2 - 41' [contd.]
Procedure: (§2) dAbs that bound serum albumin on a BIACORE chip (Biacore AB) were then further analysed to obtain information on affinity. The analysis was performed using a CM5 chip (carboxymethylated dextran matrix) that was coated with serum albumin. Flow cell 1 was an uncoated, blocked negative control, flow cell 2 was coated with HSA, flow cell 3 was coated with RSA and flow cell 4 was coated with MSA. The serum albumins were immobilised in acetate buffer pH 5.5 using the BIACORE coating wizard which was programmed to aim for 500 resonance units (RUs) of coated material. […] A range of concentrations of dAb were prepared (in the range 5 nM to 5 μM) by dilution into BIACORE HBS-EP buffer and flowed across the BIACORE chip.

[12] = target: T1, human serum albumin; test: BIACORE, HSA flow cell (Fc=2), fit of the single trace at 5000n analyte, row 'Fc=2 - 41'; KD cell not shaded [contd.]
Procedure: as §1

[13] = target: T1, human serum albumin; test: BIACORE, HSA flow cell (Fc=2), fit of the single trace at 250n analyte, row 'Fc=2 - 46' [contd.]
Procedure: as §1

[14] = target: T1, human serum albumin; test: BIACORE, HSA flow cell (Fc=2), fit of the single trace at 2000n analyte, row 'Fc=2 - 43'; KD cell not shaded [contd.]
Procedure: as §1

[15] = target: T1, human serum albumin; test: BIACORE, HSA flow cell (Fc=2), fit of the single trace at 2000n analyte, row 'Fc=2 - 43' [contd.]
Procedure: as §1

[16] = target: T1, human serum albumin; test: BIACORE, HSA flow cell (Fc=2), fit of the single trace at 3000n analyte, row 'Fc=2 - 42' [contd.]
Procedure: as §1

[17] = target: T1, human serum albumin; test: BIACORE, HSA flow cell (Fc=2), fit of the single trace at 250n analyte, row 'Fc=2 - 46'; KD cell shaded [contd.]
Procedure: as §1

[18] = target: T1, human serum albumin; test: BIACORE, HSA flow cell (Fc=2), fit of the single trace at 1000n analyte, row 'Fc=2 - 44'; KD cell not shaded [contd.]
Procedure: as §1

[19] = target: T1, human serum albumin; test: BIACORE, HSA flow cell (Fc=2), fit of the single trace at 500n analyte, row 'Fc=2 - 45' [contd.]
Procedure: as §1

[20] = target: T1, human serum albumin; test: table of affinities (KD); BIACORE on serum albumin-coated chip according to Example 1;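 further: surface plasmon resonance with dAbs flowed over a chip carrying human, rat or mouse serum albumin, blocked uncoated flow cell as reference, KD from on- and off-rate curve fits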
Procedure: as §1

[21] = target: T1, human serum albumin; test: BIACORE, HSA flow cell (Fc=2), fit of the single trace at 500n analyte, row 'Fc=2 - 45'; KD cell shaded [contd.]
Procedure: as §1

[22] = target: T1, human serum albumin; test: BIACORE, HSA flow cell (Fc=2), fit of the single trace at 3000n analyte, row 'Fc=2 - 42'; KD cell not shaded [contd.]
Procedure: as §1

[23] = target: T1, human serum albumin; test: BIACORE, HSA flow cell (Fc=2), fit of the single trace at 62.5n analyte, row 'Fc=2 - 48'; KD cell shaded [contd.]
Procedure: as §2

[24] = target: T2, mouse serum albumin; test: phage display selection on albumin (figure legend)
[25] = target: T3, rat serum albumin; test: BIACORE, RSA flow cell (Fc=3), fit of the single trace at 15n analyte, row 'Fc=3 -3'; KD cell shaded [contd.]
Procedure: as §1

[26] = target: T3, rat serum albumin; test: BIACORE, RSA flow cell (Fc=3), fit of the single trace at 25n analyte, row 'Fc=3 -1' [contd.]
Procedure: as §1

[27] = target: T3, rat serum albumin; test: BIACORE, RSA flow cell (Fc=3), fit of the single trace at 5n analyte, row 'Fc=3 -5' [contd.]
Procedure: as §1

[28] = target: T3, rat serum albumin; test: BIACORE, RSA flow cell (Fc=3), fit of the single trace at 10n analyte, row 'Fc=3 -4' [contd.]
Procedure: as §1

[29] = target: T3, rat serum albumin; test: BIACORE, RSA flow cell (Fc=3), fit of the single trace at 25n analyte, row 'Fc=3 -1'; KD cell shaded [contd.]
Procedure: as §2

[30] = target: T3, rat serum albumin; test: BIACORE, RSA flow cell (Fc=3), fit of the single trace at 15n analyte, row 'Fc=3 -3' [contd.]
Procedure: as §1

[31] = target: T3, rat serum albumin; test: BIACORE, RSA flow cell (Fc=3), fit of the single trace at 10n analyte, row 'Fc=3 -4'; KD cell shaded [contd.]
Procedure: as §2

[32] = target: T3, rat serum albumin; test: BIACORE, RSA flow cell (Fc=3), fit of the single trace at 20n analyte, row 'Fc=3 -2'; KD cell shaded [contd.]
Procedure: as §1

[33] = target: T3, rat serum albumin; test: BIACORE, RSA flow cell (Fc=3), fit of the single trace at 5n analyte, row 'Fc=3 -5'; KD cell shaded [contd.]
Procedure: as §1

[34] = target: T3, rat serum albumin; test: BIACORE, RSA flow cell (Fc=3), fit of the single trace at 20n analyte, row 'Fc=3 -2' [contd.]
Procedure: as §1

Sequence of porcine serum albumin (P08835 25-607 limits assumed): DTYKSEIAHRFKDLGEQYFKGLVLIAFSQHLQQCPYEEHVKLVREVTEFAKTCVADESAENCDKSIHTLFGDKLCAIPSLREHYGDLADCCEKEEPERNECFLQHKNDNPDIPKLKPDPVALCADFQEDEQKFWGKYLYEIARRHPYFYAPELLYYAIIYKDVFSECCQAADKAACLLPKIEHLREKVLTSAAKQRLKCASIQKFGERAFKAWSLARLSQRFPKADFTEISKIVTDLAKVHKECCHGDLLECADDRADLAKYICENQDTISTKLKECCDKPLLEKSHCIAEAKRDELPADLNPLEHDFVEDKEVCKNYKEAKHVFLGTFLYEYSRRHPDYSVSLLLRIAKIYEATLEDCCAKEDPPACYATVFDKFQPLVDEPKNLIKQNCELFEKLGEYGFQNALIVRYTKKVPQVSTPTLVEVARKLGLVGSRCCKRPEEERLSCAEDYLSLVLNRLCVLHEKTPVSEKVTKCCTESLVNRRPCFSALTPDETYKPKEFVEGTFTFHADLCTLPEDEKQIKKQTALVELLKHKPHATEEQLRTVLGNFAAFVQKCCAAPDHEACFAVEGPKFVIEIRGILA

B1: DOM7h-8 (other)
VL: DIQMTQSPSSLSASVGDRVTITCRASQSISSYLNWYQQKPGKAPKLLIYRNSPLQSGVPSRFSGSGSGTDFTLTISSLQPEDFATYYCQQTYRVPPTFGQGTKVEIKR
Kd [1]: 0.07 µM
Kd [2]: 0.06 µM
Kd [3]: 0.2 µM
Kd [4]: 0.12 µM
Kd [5]: 0.1 to 0.5 µM
Kd [6]: 0.01 to 0.1 µM

B2: DOM7h-7 (other)
VL: DIQMTQSPSSLSASVGDRVTITCRASQSISSYLNWYQQKPGKAPKLLIYRNSQLQSGVPSRFSGSGSGTDFTLTISSLQPEDFATYYCQQTFAVPPTFGQGTKVEIKR
Ka [7]: 5.01e+06 M⁻¹
koff [7]: 0.1 s⁻¹
kon [7]: 501000 M⁻¹ s⁻¹
Ka [8]: 1.51e+06 M⁻¹
koff [8]: 0.0946 s⁻¹
kon [8]: 143000 M⁻¹ s⁻¹
Kd [9]: 0.662 µM
Ka [10]: 5.93e+06 M⁻¹
koff [10]: 0.105 s⁻¹
kon [10]: 623000 M⁻¹ s⁻¹
koff [11]: 0.107 s⁻¹
Kd [12]: 9710 µM
Ka [13]: 2.83e+06 M⁻¹
koff [13]: 0.0998 s⁻¹
kon [13]: 283000 M⁻¹ s⁻¹
Kd [14]: 0.43 µM
Ka [15]: 2.33e+06 M⁻¹
koff [15]: 0.108 s⁻¹
kon [15]: 251000 M⁻¹ s⁻¹
Ka [16]: 22100 M⁻¹
koff [16]: 0.106 s⁻¹
kon [16]: 2350 M⁻¹ s⁻¹
Kd [17]: 0.353 µM
Kd [18]: 0.169 µM
Ka [19]: 2.93e+06 M⁻¹
koff [19]: 0.103 s⁻¹
kon [19]: 302000 M⁻¹ s⁻¹
Kd [3]: > 5 µM
Kd [4]: > 5 µM
Kd [20]: 0.4 µM
Kd [21]: 0.341 µM
Kd [6]: 0.1 to 0.5 µM
Kd [22]: 45.1 µM
Kd [23]: 0.2 µM

B3: DOM7m-12 (other)
VL: DIQMTQSPSSLSASVGDRVTITCRASQSIFRHLKWYQQKPGKAPKLLIYAASRLQSGVPSRFSGSGSGTDFTLTISSLQPEDFATYYCQQVALYPKTFGQGTKVEIKR
notes: also called MSA 12
binding result [24]: binds

B4: DOM7r-1 (other)
VL: DIQTTQSPSSLSASVGDRVTITCRASQYIGRYLRWYQQKPGKAPKLLIYDSSVLQSGVPSRFSGSGSGTDFTLTISSLQPEDFATYYCQQRYRMPYTFGQGTRVEIKR
Kd [25]: 0.0131 µM
Ka [26]: 9.35e+07 M⁻¹
koff [26]: 0.0345 s⁻¹
kon [26]: 3.23e+06 M⁻¹ s⁻¹
Ka [27]: 6.12e+07 M⁻¹
koff [27]: 0.0316 s⁻¹
kon [27]: 1.93e+06 M⁻¹ s⁻¹
Ka [28]: 9.07e+07 M⁻¹
koff [28]: 0.0316 s⁻¹
kon [28]: 2.87e+06 M⁻¹ s⁻¹
Kd [29]: 0.0107 µM
Ka [30]: 7.62e+07 M⁻¹
koff [30]: 0.0331 s⁻¹
kon [30]: 2.52e+06 M⁻¹ s⁻¹
Kd [31]: 0.011 µM
Kd [32]: 0.0119 µM
Kd [33]: 0.0163 µM
Ka [34]: 8.41e+07 M⁻¹
koff [34]: 0.0344 s⁻¹
kon [34]: 2.89e+06 M⁻¹ s⁻¹
binding result [3]: no binding
Kd [4]: 0.015 µM
binding result [20]: no binding
Kd [5]: 0.01 to 0.1 µM
